Experimental data as given in patent US20120316071A1 (published 2012).
Numbering of substitutions follows the chain as printed. Numbers in names are those of the source. One block for each binder: values may come before it.

Experiments:
[1] = target: T1, rHuman EGF R/Fc Chimera, CF (R&D Systems Cat#344-ER) (human, UniProt P00533 25-645); assay: MSD multispot ECL, antigen spotted on plate, Fab 352.5 nM; blank spot 494
T1 construct: Bought from R&D Systems; also called epidermal growth factor receptor (EGF R); not shown: Fc of the bought chimera

[2] = target: T2, rHuman Notch-1/Fc Chimera, CF (R&D Systems Cat#3647-TK) (human, UniProt P46531 19-526); assay: as above
T2 construct: Bought from R&D Systems; not shown: Fc of the bought chimera

[3] = target: T3, rHuman CD44/Fc Chimera, CF (R&D Systems Cat#3660-CD) (human, UniProt P16070 21-220); assay: as above
T3 construct: Bought from R&D Systems; not shown: Fc of the bought chimera

[4] = target: T4, rHuman IGF-1 sR, (IGF-1 sR), CF (R&D Systems Cat#391-GR) (human, UniProt P08069 31-932); assay: as above
T4 construct: Bought from R&D Systems and called a soluble receptor; also called insulin-like growth factor-1 soluble receptor

[5] = target: T5, rHuman P-Cadherin/Fc Chimera, CF (R&D Systems Cat#861-PC) (human, UniProt P22223 108-654); assay: as above
T5 construct: Bought from R&D Systems; not shown: Fc of the bought chimera

[6] = target: T6, rHuman IGF-1 sR, CF (R&D Systems Cat#391-GR) (human, UniProt P08069 31-932); assay: ECL Multispot (MSD) assay, antigen spotted on plate, 10 nM Fab; blank spot of this row 182
T6 construct: Bought soluble receptor; The column head prints only 'IGF-1'; also called insulin-like growth factor-1 soluble receptor

[7] = target: T7, rHuman P-Cadherin/Fc Chimera, CF (R&D Systems Cat#861-PC) (human, UniProt P22223 108-654); assay: as above
T7 construct: Bought reagent; Fc part of the bought chimera not given

[8] = target: T8, rHuman Erythropoietin R/Fc Chimera, CF (R&D Systems Cat#963-ER) (human, UniProt P19235 25-250); assay: as above
T8 construct: Bought reagent; also called EPO R; EPO R/Fc; Fc part of the bought chimera not given
T8 sequence (looked up): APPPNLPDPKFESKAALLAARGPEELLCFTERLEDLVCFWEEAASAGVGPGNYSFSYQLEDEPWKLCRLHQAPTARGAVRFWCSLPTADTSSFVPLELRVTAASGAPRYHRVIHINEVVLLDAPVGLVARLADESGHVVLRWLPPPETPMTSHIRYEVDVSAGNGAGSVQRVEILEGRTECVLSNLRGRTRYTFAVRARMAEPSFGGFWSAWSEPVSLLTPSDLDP

[9] = target: T9, rHuman ErbB2/Fc Chimera, CF (R&D Systems Cat#1129-ER) (human, UniProt P04626 23-652); assay: as above
T9 construct: Bought reagent; also called human epidermal growth factor 2 receptor; Fc part of the bought chimera not given

[10] = target: T10, rHuman EGF R/Fc Chimera, CF (R&D Systems Cat#344-ER) (human, UniProt P00533 25-645); assay: as above
T10 construct: Bought reagent; also called epidermal growth factor receptor; Fc part of the bought chimera not given

[11] = target: T11, rHuman HGF R/c-MET/Fc Chimera, CF (R&D Systems Cat#358-MT/CF) (human, UniProt P08581 25-932); assay: as above
T11 construct: Bought reagent; also called HGF R/Fc; hepatocyte growth factor receptor; Fc part of the bought chimera not given
T11 sequence (P08581 25-932, change not shown): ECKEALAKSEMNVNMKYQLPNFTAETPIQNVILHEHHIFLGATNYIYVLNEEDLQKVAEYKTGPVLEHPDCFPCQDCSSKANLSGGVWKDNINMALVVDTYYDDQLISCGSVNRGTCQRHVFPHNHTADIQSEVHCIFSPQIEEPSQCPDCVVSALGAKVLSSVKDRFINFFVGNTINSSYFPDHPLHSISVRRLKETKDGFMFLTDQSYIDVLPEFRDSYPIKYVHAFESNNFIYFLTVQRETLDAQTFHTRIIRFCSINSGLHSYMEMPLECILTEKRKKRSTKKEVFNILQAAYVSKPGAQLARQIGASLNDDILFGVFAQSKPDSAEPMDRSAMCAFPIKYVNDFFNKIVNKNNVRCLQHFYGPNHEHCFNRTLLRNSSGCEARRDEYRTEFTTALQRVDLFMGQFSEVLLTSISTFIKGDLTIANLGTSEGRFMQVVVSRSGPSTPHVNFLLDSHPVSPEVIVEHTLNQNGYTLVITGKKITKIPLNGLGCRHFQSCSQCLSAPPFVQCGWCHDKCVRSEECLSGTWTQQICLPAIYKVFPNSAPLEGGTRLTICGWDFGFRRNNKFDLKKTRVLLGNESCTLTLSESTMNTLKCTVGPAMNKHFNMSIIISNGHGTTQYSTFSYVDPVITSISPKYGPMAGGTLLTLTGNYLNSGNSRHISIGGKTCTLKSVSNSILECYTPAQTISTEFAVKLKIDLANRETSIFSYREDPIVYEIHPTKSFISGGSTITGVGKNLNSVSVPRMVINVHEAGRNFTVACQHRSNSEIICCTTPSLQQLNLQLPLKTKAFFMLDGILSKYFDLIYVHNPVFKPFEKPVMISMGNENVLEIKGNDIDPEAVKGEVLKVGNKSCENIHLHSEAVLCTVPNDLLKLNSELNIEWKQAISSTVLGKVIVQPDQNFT

[12] = target: T12, rHuman Notch-1/Fc Chimera, CF (R&D Systems Cat#3647-TK) (human, UniProt P46531 19-526); assay: as above
T12 construct: Bought reagent; Fc part of the bought chimera not given

[13] = target: T13, rHuman CD44/Fc Chimera, CF (R&D Systems Cat#3660-CD) (human, UniProt P16070 21-220); assay: as above
T13 construct: Bought reagent; Fc part of the bought chimera not given

[14] = target: T14, rHuman EGF R/Fc Chimera, CF (R&D Systems Cat#344-ER) (human, UniProt P00533 25-645); assay: MSD multispot ECL, antigen spotted, Fab 595.8 nM; blank spot 285
T14 construct: Bought reagent; also called epidermal growth factor receptor

[15] = target: T15, rHuman Notch-1/Fc Chimera, CF (R&D Systems Cat#3647-TK) (human, UniProt P46531 19-526); assay: as above
T15 construct: Bought reagent

[16] = target: T16, rHuman CD44/Fc Chimera, CF (R&D Systems Cat#3660-CD) (human, UniProt P16070 21-220); assay: as above
T16 construct: Bought reagent

[17] = target: T17, rHuman IGF-1 sR, (IGF-1 sR), CF (R&D Systems Cat#391-GR) (human, UniProt P08069 31-932); assay: as above
T17 construct: Bought soluble receptor; also called insulin-like growth factor-1 soluble receptor

[18] = target: T18, rHuman Erythropoietin R/Fc Chimera, CF (R&D Systems Cat#963-ER) (human, UniProt P19235 25-250); assay: as above
T18 construct: Bought reagent; also called EPO R/Fc; Epo R
T18 sequence (looked up): T8 sequence (looked up)

ECL signal [1]: 769 | ECL signal [2]: 715 | ECL signal [3]: 556 | ECL signal [4]: 528 | ECL signal [5]: 649
B1: Fab VH1-46_IGHD3-10*01_IGHJ4*01 & B3_IGKJ1*01 (Fab, V domains shown)
VH: QVQLVQSGAEVKKPGASVKVSCKASGYTFTSYYMHWVRQAPGQGLEWMGIINPSGGSTSYAQKFQGRVTMTRDTSTSTVYMELSSLRSEDTAVYYCAREYYYGSGSYYNDYFDYWGQGTLVTVSS
VL: not shown
notes: Tested as a Fab made in E. coli; VH was cloned into Plasmid A (CH1 constant region, His6 and Flag tags); The kappa VL was cloned into Plasmid C (kappa CL)

ECL signal [6]: 344 | ECL signal [7]: 449 | ECL signal [8]: 222 | ECL signal [9]: 221 | ECL signal [10]: 296 | ECL signal [11]: 319 | ECL signal [12]: 251 | ECL signal [13]: 221
B2: Fab VH1-46_IGHD6-6*01_IGHJ1*01 S102A/S103P/S104F (APF) & L6_IGKJ1*01 (Fab, V domains shown)
VH: QVQLVQSGAEVKKPGASVKVSCKASGYTFTSYYMHWVRQAPGQGLEWMGIINPSGGSTSYAQKFQGRVTMTRDTSTSTVYMELSSLRSEDTAVYYCAREEYAPFSAEYFQHWGQGTLVTVSS
VL: not shown
notes: Tested as a Fab made in E. coli; also called H:APF & L:wt; APF triple mutant

ECL signal [14]: 403 ECL signal | ECL signal [15]: 306 ECL signal | ECL signal [16]: 372 ECL signal | ECL signal [17]: 335 ECL signal | ECL signal [18]: 378 ECL signal
B3: Fab VH1-46_IGHD6-6*01_IGHJ1*01 & L6_IGKJ1*01 (Fab, V domains shown)
VH: B2 VH with A102S, P103S, F104S
VL: not shown
notes: Only variable domains are tied to the molecule; Tested as a Fab made in E. coli: heavy chain from Plasmid A (CH1 constant region, His6 and Flag tags), kappa light chain from Plasmid C (kappa CL); also called parent Hit Fab against DLL4; VH1-46_IGHD6-6*01_IGHJ1*01 & L6_IGKJ1*01 (parental)
